Data taken from the domain aggregation screens of Martell et al. (2025).

Assay: soluble fraction after stress (log2 fold change); higher = more stays soluble; pooled small domains, quantitative proteomics
Conditions: stress: pH 4
Method in brief: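 High-throughput quantitative proteomics was run on pooled custom libraries of small protein domains following pH 4 stress. Fold changes are on a log2 scale; higher values mean more of a domain remained soluble. The fold change in soluble amount is taken as a measure of aggregation propensity.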

Sequence	soluble fraction (log2)
HMELGWYVRLRRRELGLSVTALAEKAGMSQSYLSQIETGDRGNPSPESLRSLAEALEVSPRELESLV	0.286
HMNTKLKPLYLLDIFREMTDERHRMTVPELLEELQRRGITAERKGIYRDIDALIQYGADIKHTGTGYYLAR	0.18
HMSDYKSALQEAVQTNKQSIEYVLIKESGPAHNKTFTFEVRIDNISYGVGTAKSKKEAEQIAAKDALDKLV	-0.103
HMSVPSVAAVREQTGLSQVKFASLLGVSVRTLQEWEQGRRAPSGAARTLLMVAAKNPQALLEV	-0.0956
HMNATLEQLTQREREIAVLMAEGLTNAQIGSRLNVSMASVKAHLSHIFTKLGVDNRVSAAMMVL	-0.0121
HMLPISGDDRDALDMAALILKQYDSLPILKEFANVVTKLQTVLDGVVSNSIEARRQMIQFEE	-0.48
HMFGIEIPEEAGKLQDYTLTDDDLEGGNTLKEIQFPQGARVVIIRRDDKFIIPDGSVELQSGDQLLIIYGE	-1.81
HMFQEGLVAPPAYTRPESFRGWEVPEILRSGNFPAIAKWQHEESLRLTRERRPAMLEAYERRT	-0.415
HMEEYLENLTQSKLLHMLDQLSPAYKTVFTLFVLDELSHEEISKMLNISIGTSKSNLFRARKVMRVLMESE	-0.283
HMTDQYEVQNLVGLTVREAQEKEGVKDIFEVREVGSEFSAEYDAGLIVRQSPDAGEQRKGEGLVIEVWVSA	-0.409
HMKNINTNIGKNLKRIRKLRGLTIDALATSSGVSKSMISEIERGIRNPSITIIWSLANALKTPLNYFLKE	≥ 0.43
HMHLTRYLHTMIRAANLDDTLDFFVEKLGLIEAYRYSNEAGRFTLVFLSAPDDLESAQSRQAPLVEITYN	-0.329
HMVPADVQHLRDIVDTMTEKQQLVYKLHVLEGYTFTEIAKLMGTSIPNVKKHYDKAILFIKNNF	-0.165
HMSRGTRIDPNWQPSPEDRALARAEGFSDPEIDREALQFRDYWLGASGSNAVKLDWSATWRNWVRRAATNF	-0.204
HMKTLDATQRLKLNGEGIIVFNFGKYVDQPVVEIFKKERGYFAWMMSKDFSQQVKNIITKIHNEEILGK	-0.344
HMKETERKILQAVLGLPLKYRDVIHLFYYEEMSVKEIAEVLHRQESTVTSQLTRARGILKKNL	-0.377
HMETLGADLRALRKSRGLTLLDMAESLGRSVGWLSQVERDLSDPSISDLREIAELLGVPISMLFRH	-1.33
HMRKPISQEIVDEVLKLAKNNPDWGYDRIAGVMKYLKYDVSATTVRHILDDNGIVPDPERRLR	-0.0119
HMNIFAHQIGKLRTERHLSQTDVAKRLYVSRQAVSKWENGDAEPSLDNLIALAKLFNVSLDNLITGQ	0.138
HMLPITPGQKYKFVVKSAEEAAAIIRDKLGEMAQVISVRQVEGEGLARFLKSPKLEIIAQVPVA	-0.349
HMNRYPIQTEVHAFNDDIIKEAINFEMSRGGQIFFVNNRIPQLYELENTIHRLVPDARVVIGHGQMP	-0.722
HMQMSWDAVKARLQDIVNNEDKTKPFNDEMLASKLKEQGIEIARRTVVKYRQQLGIPAARLRKK	-0.17
HMTRKQTIYEFLRRMKSQHGLDAVYSTEEIANAVGVSRANVSSDLNRLFEEQLVEKLPGWPVKYRA	0.128
HMSVPRVWTDIQGRRVKGDFEGLRGDLVVLRVGGKSYAFPLVRLIASDQAYARSLVAGNPSK	0.22
HMDFSERLARAMSLAGYTQGRLAKEVGMAQSSVNKLLNGANGSRKTVEIASVLGVRPEWLSTGAGEML	0.0512
HMPLTEMAVRKHLSAELAQKGYTIDPRALEILLQRTNTNLTAIANELPKLLLVAEDKQITVNEVSAM	-0.1

Sequence	soluble fraction (log2)
HMRMLTKRRQDLLLELLEERGSITVSEVKDMLDASESTIRRDITALDEEGKLVKVFGGAVAAR	-0.465
HMNVRAYKVSKESELTVEEKLEAVRGYGVADLLYVIREFEENPGKYEPEVIKLIVQQLTDKGIM	-0.94
HMGLYPYSGTPADNQEANERRIFDIYSTHLERIFSDFSGATLRTKRLVLRLMQELVHSDPVRMAGILDEL	0.1
HMKTKTFSPGEIVKIQTRDKSWQGTILESHDPEIILLKLTTGYNIGIRENEIINAKVIEKSKKDVKDAE	0.176
HMLDQAVPVFETPKYAVSYIQNRLVEMKAASPEEAASRFYESISESERRGLFEALLIKEAEES	-0.821
HMLRVVSTRQAFDIVRGWADAHPQDPEHNKTLDELEELAKKEVWDDWSRTNEIAERLNALLVSIGANVRTA	-0.314
HMRSRHYRFSTPFLDRLIAEIDWNSDNALSIFNQKLVHFDFLKYFSAIQPGSIVEIENLNFIWTGKRLEAH	-0.71
HMHTPSGALLSAIEKEWGSFDNFKKEFTTAATSLFGSGWVWLAKDKKGKLYILSENNAGNPITKGYTPILG	-0.432
HMGKVTILSNPVKDALVIMGLHNAETIDVRLFDNTGRLVMQGSQSRMDISSLSPGLYILQVNGKILKVIK	-0.222
HMSNSGFVKNNGKTEFYDASGRQAKSSWINISGKWYYFDLNGTMVTGWQRISNKWYYFLEDGSK	0.342
HMDPSKLVEVQEPVSMKALSEGLGIKVTELIATFAFKLKIGGKNINSMLSNDEVELVALDLERNIKVV	-0.0335
HMATEPLQPRVEVLGSTLATTNGARIVGVYDMSGREVSATQLSKGVYIVKVTNGSVTATQKVFI	0.254
HMTEEDVVIFSGLSDRDLKMVQTELANSGIKYTLPTSGTVSVPNSEIARAQMVLAMAGIPRS	-0.0859
HMIKNKDRIQYTLAHRKAFRKIEKELLGYNTFRSLFHDLDKVFLYPFFDYKKVHNFHRNHAHH	0.0879
HMSERIITFGEATREAMLEEMRADERVFVYGEDIAKQGGIFGQFAGMKDEFPERVLDTPISETALVGAG	-0.679
HMSTPLVATLRKRIIDGHYPPGERLAEIPVAEAFGVSRTPVRLAFRTLEQEGLLEKAGKRGYAVRA	0.0231
HMTQQYVEWKVYNVTTIKNKYGFRVKLIFQDGSDATQQKGGFTSKKAAEQARTEVIGQLYSNTYVVY	≥ 0.43
HMIIENIVVEIKGEVYNPGLYILEQGSRINDLIELSGGFTKDANGTDLNLAKVLSDGEVIIVSKKG	-1.35
HMGLSIPLMGAKASDIEISTLNDEVQRKLKIIVKEQGHENLQRVVPLPSEAREIQAHFINGRLHLR	0.214
HMHDLDALTGLSGEARSKVYEEGSVFVAGEMWSAKSDAVIPAGSSIRVVRREGFILVVEKDS	-1.97
HMAIVNVEVPSLVGKTEQEARNLLTEAGLKVNVVNDEDESKNDGVVLRQSKDAGTEVQEGTTITITVNKVS	-0.467
HMDFGMPEELQKKLDKMPALKAAFEALTPGRQRGYIFYFSQPKQSKTRELRIEKSIEQIMNGKGLND	0.199
HMLNPMILLTKGGENIRLDKFLSSHLSDLSRTQIQKMVKEGLVLVNGEPSKVGLKLDGSETIQYTLPK	0.254
HMSDIISEIESQVMFKLATYEITNATEKMIEALINSEINDRRTLGFPIPNEQGRIFLVRSIQNKLAV	-1.54
HMTDFNTFSDAIIAAVGSRASGLKVVDNAVSVMVDVSGLNEDQRVEIEADVRAAAEHAGAQSVRIMLT	-0.5
HMYGSLGEYELAAVQWIYGKGKITTRELSSLIGKGLTLSSKTLRGLAAKGILEWHGNSKNDPSQFYSLP	-0.196

Sequence	soluble fraction (log2)
HMSQAVTMLKAGRLLANSKGTGAAVRDLEPGMLLYPTGQKDGTMWEVEDEMGNKGWVNSTSMQLA	0.395
HMWMTAQDFRNSSLPWSATTSYNEGQSVRVVDGSNTYYYIAIVKTQPGQSPTTHPTSWREVDA	0.311
HMDRGDVTREALIKAAIEIFGRDGFHAASTRAIAERAGANQALIGYHFRGKLGLYHATFEYIIGKI	-0.474
HMSSFSESFHKALNNLDDKHKSVFSLRHFEGFSMKEIAETLNINEGTVKSRLFYATKTLAGALKEF	-1.29
HMELNDEELIKGIQELLTKIGYDPGEINGVLGIKTSSAISAFQQSRNKAITGEADLDLLVQLQIELRKITT	-1.32
HMVIDETVLIDLFERLAEDDRPQRVAFRYILALVLLRKRTLQLIGREDEDDGEIWLLRFKGTDGEPIRV	-2.56
HMDGSEYAGTVRLGDGTLQPVPRFETSNSETPKYLYLVMDVTHDPPVYILEHESAELKSVLGGLVLIGSYS	-0.0612
HMVELPDLIGKSKRLAFTQLEISGLKIGKIIYEPDLAKDAVLKILYNGKIVKAGEQLPRFATVDLVLG	-0.0904
HMGDAATVFRDHYNINSAAQAQAALDRKEALWEQPNPWRDSDNREVFDWAAQTVKDRFDSGKYKPK	-0.107
HMQISNEEELEKIIENVIESNPEKVKAYQSGKSGLIGFFMGQVMKESGGQANPNLVNQILKGKL	0.109
HMQVSDEGAIQLLVQKAIEENPQAIEAFRGGKTSALGPVVGWVMKQSKGAANPTMVKTLLEKAI	0.378
HMVSLLDWAYKQVRRMLFSGDLPQGQKIVVAQLANQLSISPTPVKEALNRLAVEGLLEAVPRRGFQVR	-1.02
HMDVNPETLSYYIERADISLDELRTSVKGIDLFLTGEKQPTFNQISNIAKKLNIPTGLLLINKPIEI	-1.37
HMSASLPAAVEDPDLPYRVGAKLRHARWGEGLLVGIQREGSDVIATVHFASVGRKRLSLQYAHLEE	-0.785
HMFISVDGLIHMGRTHLVILGGVEFARGDMIPETGEVVKSIGADSVVLELPDTGMRRTLNFV	-1.91
HMEPLKLGDATGDGKINLQDVLEMQKHMAGILVLKGKFFTAADVNGNGKIELVDVLSVQKYLAGVTAEV	-0.0932
HMNVRRSRTHEKVTTYQGYDIFINKEPNQRGMFTSAPMRGDNEYSNLRGEGKSKQDAVNMTKEKIDEIAA	0.229
HMPPALTELLSVRTNASGTIDYLLPDRSAGLRVENGSKYSGMVPDSIYRLVAIYEIKDAKEPSAYIYTI	-0.223
HMQMSPREKMIYSFIESHPGTKSGEIAEKLNVPLPTVKRILSEMVSGNFIAKHGSGIGTNYSTEK	≥ 0.43
HMAGAITEREVEVLELLSRGLGNKEIAKELFVSEATVKSHLSHIYTKLAVDTRAGAVAAAIERRIIRAWR	-0.388
HMGQGSAFVYYEVLPKQTEYSLTRKLGLGYADLLSLNPQLARGLQAGMVLKIPRDKAGNLEVKNDLILE	0.165
HMTTGTVKWFNDAKGFGFITPDDRSVDVFVHYSNIVGQSGRRTLMEGERVEYEAIEGPKGPQATDVARA	-1.06
HMSQDINVFIKTNPENATIIWDGESKGTNGIFKSNAGAHRLRIEMQGYESIDQDIQVSDKQFSFEYNLKKE	0.22
HMQRSVKNNDTVQVHYTGKLTNGQIFDSSIDKQPLEFQLGQGQIIPGFEKGLIDMTVSEKKTITIPEAEAY	0.133
